Measurements published in paper PMC9482650, “Quantitative fragmentomics allow affinity mapping of interactomes” (Nature Communications, 2022).

B1: SCN8A, Q9UQD0 (peptide)
chain: RQKEVRESKC
B2: PTPRZ1, P23471 (peptide)
chain: NIAESLESLV
B3: ZSCAN30, Q86W11 (peptide)
chain: MQHQRTHTRV
B4: PRR16, Q569H4 (peptide)
chain: ILRKSTTTTV
B5: MARCHF3, Q86UD3 (peptide)
chain: VKRNSKETVV

What was measured:
Assay in all cases: holdup assay
Set-up in all cases: key: below the threshold = too weak to quantify, mostly under pKd 3.1 to 4
Details in all cases: plain residues with an end cap or a label only (N-terminal biotin on a linker: ado-ado)
SCRIB_1, Q14160 = target: SCRIB_1, Q14160
PDLIM1, O00151 = target: PDLIM1, O00151
GRIP1_5, Q9Y3R0 = target: T1, GRIP1_5, Q9Y3R0
T1 sequence (Q9Y3R0 568-668, limits assumed, looked up): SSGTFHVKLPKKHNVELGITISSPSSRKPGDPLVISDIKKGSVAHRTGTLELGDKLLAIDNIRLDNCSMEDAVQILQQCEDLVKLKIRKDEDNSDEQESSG

PDZRN4_1, Q6ZMN7 = target: PDZRN4_1, Q6ZMN7
Inadl_8, Q8NI35 = target: Inadl_8, Q8NI35
DLG3_3, Q92796 = target: T2, DLG3_3, Q92796
T2 sequence (Q92796 374-475, limits assumed, looked up): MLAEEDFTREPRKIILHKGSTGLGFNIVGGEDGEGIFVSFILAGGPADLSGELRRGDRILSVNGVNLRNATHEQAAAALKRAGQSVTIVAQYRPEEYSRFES

Inadl_9, Q8NI35 = target: Inadl_9, Q8NI35
GOPC, Q9HD26 = target: GOPC, Q9HD26
GRIP2_3, Q9C0E4 = target: GRIP2_3, Q9C0E4
APBA1_1, Q02410 = target: T3, APBA1_1, Q02410
T3 sequence (Q02410 651-752, limits assumed, looked up): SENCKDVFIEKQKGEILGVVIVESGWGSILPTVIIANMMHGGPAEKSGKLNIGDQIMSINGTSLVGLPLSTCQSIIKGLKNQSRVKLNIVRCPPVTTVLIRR

DLG1_2, Q12959 = target: DLG1_2, Q12959
APBA1_2, Q02410 = target: T4, APBA1_2, Q02410
T4 sequence (Q02410 742-832, limits assumed, looked up): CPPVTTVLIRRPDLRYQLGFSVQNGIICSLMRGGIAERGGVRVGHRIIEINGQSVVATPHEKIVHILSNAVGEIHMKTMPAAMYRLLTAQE

NHERF4_1, Q86UT5-2 = target: NHERF4_1, Q86UT5-2
TJP1_3, Q07157 = target: TJP1_3, Q07157
LNX2_2, Q8N448 = target: T5, LNX2_2, Q8N448
T5 sequence (Q8N448 334-432, limits assumed, looked up): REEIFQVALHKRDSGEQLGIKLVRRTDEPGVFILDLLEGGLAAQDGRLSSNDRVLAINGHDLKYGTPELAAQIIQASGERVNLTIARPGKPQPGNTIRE

Inadl_10, Q8NI35 = target: Inadl_10, Q8NI35
DLG1_3, Q12959 = target: DLG1_3, Q12959
AHNAK1, Q09666 = target: AHNAK1, Q09666
Inadl_4, Q8NI35 = target: Inadl_4, Q8NI35
TJP2_1, Q9UDY2 = target: TJP2_1, Q9UDY2
DVL3, Q92997 = target: T6, DVL3, Q92997
T6 sequence (Q92997 244-331, limits assumed, looked up): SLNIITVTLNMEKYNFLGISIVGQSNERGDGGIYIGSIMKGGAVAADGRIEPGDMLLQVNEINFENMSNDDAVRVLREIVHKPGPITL

FRMPD3, Q5JV73 = target: FRMPD3, Q5JV73
Inadl_5, Q8NI35 = target: Inadl_5, Q8NI35
NOS1, P29475 = target: NOS1, P29475
DFNB31_2, Q9P202 = target: T7, DFNB31_2, Q9P202
T7 sequence (Q9P202 274-371, limits assumed, looked up): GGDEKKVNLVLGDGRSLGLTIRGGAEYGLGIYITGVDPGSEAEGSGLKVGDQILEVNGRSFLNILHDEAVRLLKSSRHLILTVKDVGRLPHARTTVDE

HTRA3, P83110 = target: T8, HTRA3, P83110
T8 sequence (P83110 354-453, limits assumed, looked up): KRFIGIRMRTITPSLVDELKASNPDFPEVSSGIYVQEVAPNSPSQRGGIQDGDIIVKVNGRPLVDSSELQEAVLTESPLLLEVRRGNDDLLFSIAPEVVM

PTPN3, P26045 = target: PTPN3, P26045
FRMPD1, Q5SYB0 = target: T9, FRMPD1, Q5SYB0
T9 sequence (Q5SYB0 52-145, limits assumed, looked up): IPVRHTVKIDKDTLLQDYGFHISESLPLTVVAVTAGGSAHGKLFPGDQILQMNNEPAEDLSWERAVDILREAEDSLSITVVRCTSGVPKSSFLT

SCRIB_3, Q14160 = target: SCRIB_3, Q14160
Sequence of SCRIB_3, Q14160 (Q14160 999-1103): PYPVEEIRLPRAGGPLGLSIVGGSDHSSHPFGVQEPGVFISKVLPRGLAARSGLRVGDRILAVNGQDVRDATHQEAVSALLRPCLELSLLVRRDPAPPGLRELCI

Sequence of AHNAK1, Q09666 (Q09666 4-100): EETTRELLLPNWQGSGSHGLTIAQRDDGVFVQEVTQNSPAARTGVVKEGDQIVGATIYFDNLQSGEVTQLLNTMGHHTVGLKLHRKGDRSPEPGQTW
Sequence of Inadl_9, Q8NI35 (Q8NI35 1530-1615): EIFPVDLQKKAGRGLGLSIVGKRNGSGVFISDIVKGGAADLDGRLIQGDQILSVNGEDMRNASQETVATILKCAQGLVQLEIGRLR
Sequence of NOS1, P29475 (P29475 9-101): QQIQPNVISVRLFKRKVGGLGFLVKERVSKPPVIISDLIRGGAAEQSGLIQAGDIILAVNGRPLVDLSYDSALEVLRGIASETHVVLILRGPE
Sequence of DLG1_2, Q12959 (Q12959 314-412): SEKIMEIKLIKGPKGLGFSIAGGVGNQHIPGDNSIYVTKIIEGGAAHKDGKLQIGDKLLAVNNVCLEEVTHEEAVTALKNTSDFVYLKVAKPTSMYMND
Sequence of Inadl_10, Q8NI35 (Q8NI35 1673-1763): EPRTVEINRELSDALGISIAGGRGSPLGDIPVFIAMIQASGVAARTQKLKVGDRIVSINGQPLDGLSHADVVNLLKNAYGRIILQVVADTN
Sequence of FRMPD3, Q5JV73 (Q5JV73 12-100): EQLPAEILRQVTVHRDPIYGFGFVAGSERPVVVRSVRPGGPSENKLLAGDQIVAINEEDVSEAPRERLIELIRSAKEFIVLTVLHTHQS
Sequence of SCRIB_1, Q14160 (Q14160 718-814): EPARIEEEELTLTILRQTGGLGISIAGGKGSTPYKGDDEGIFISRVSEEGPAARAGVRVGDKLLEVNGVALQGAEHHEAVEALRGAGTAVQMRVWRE
Sequence of GRIP2_3, Q9C0E4 (Q9C0E4 238-339): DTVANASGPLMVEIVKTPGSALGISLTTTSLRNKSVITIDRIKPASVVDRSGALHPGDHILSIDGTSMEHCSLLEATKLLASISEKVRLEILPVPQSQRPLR
Sequence of PTPN3, P26045 (P26045 505-587): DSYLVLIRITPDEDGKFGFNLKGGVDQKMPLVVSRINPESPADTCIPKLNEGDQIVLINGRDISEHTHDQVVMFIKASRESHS
Sequence of PDLIM1, O00151 (O00151 1-87): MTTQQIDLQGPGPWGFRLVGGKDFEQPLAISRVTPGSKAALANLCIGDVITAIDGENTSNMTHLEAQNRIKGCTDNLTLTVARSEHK
Sequence of Inadl_8, Q8NI35 (Q8NI35 1425-1530): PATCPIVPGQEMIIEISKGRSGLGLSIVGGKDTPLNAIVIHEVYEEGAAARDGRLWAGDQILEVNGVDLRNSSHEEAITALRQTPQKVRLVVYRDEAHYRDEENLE
Sequence of TJP2_1, Q9UDY2 (Q9UDY2 24-128): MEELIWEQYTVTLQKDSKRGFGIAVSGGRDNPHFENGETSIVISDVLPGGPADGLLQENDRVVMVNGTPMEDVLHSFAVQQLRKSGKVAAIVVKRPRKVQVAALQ
Sequence of Inadl_5, Q8NI35 (Q8NI35 673-780): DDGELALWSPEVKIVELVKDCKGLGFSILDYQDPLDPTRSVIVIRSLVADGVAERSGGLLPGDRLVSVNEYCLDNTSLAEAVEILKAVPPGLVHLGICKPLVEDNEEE
Sequence of TJP1_3, Q07157 (Q07157 416-512): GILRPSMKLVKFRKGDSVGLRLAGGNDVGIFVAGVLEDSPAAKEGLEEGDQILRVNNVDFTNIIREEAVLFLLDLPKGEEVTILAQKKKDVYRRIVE
Sequence of NHERF4_1, Q86UT5-2 (Q86UT5 other isoform, or with tags, fused parts or gaps): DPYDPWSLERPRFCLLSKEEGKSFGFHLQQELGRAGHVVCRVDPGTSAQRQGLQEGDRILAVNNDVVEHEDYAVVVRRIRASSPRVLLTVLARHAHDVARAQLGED
Sequence of DLG1_3, Q12959 (Q12959 457-571): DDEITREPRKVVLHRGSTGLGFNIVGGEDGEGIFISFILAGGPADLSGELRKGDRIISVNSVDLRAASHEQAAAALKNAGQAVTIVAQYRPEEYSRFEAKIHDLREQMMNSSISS
Sequence of Inadl_4, Q8NI35 (Q8NI35 547-651): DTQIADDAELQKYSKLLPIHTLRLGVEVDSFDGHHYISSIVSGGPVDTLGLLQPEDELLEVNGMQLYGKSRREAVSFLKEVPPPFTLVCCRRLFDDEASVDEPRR
Sequence of PDZRN4_1, Q6ZMN7 (Q6ZMN7 213-318): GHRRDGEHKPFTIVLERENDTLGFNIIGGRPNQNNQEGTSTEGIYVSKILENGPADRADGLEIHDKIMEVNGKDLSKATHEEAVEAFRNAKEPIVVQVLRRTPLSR

Binder | pKd (SCRIB_1, Q14160) | pKd (PDLIM1, O00151) | pKd (GRIP1_5, Q9Y3R0) | pKd (PDZRN4_1, Q6ZMN7) | pKd (Inadl_8, Q8NI35) | pKd (DLG3_3, Q92796) | pKd (Inadl_9, Q8NI35) | pKd (GOPC, Q9HD26) | pKd (GRIP2_3, Q9C0E4) | pKd (APBA1_1, Q02410) | pKd (DLG1_2, Q12959) | pKd (APBA1_2, Q02410) | pKd (NHERF4_1, Q86UT5-2) | pKd (TJP1_3, Q07157) | pKd (LNX2_2, Q8N448) | pKd (Inadl_10, Q8NI35) | pKd (DLG1_3, Q12959) | pKd (AHNAK1, Q09666) | pKd (Inadl_4, Q8NI35) | pKd (TJP2_1, Q9UDY2) | further results
B1 | 4.53 | below the threshold | below the threshold | below the threshold | 3.95 | 3.58 | below the threshold | below the threshold | below the threshold | below the threshold | 3.55 | below the threshold | 3.91 | below the threshold | below the threshold | below the threshold | 4.13 | below the threshold | below the threshold | below the threshold | pKd (DVL3, Q92997): below the threshold; pKd (FRMPD3, Q5JV73): below the threshold; pKd (Inadl_5, Q8NI35): below the threshold; pKd (NOS1, P29475): below the threshold; pKd (DFNB31_2, Q9P202): 4.37; pKd (HTRA3, P83110): 3.5; pKd (PTPN3, P26045): 4.6; pKd (FRMPD1, Q5SYB0): below the threshold; pKd (SCRIB_3, Q14160): 4.16
B2 | 3.87 | below the threshold | below the threshold | 3.99 | below the threshold | below the threshold | 3.76 | below the threshold | below the threshold | below the threshold | 5.31 | below the threshold | 3.7 | below the threshold | 4.05 | below the threshold | below the threshold | below the threshold | below the threshold | below the threshold | pKd (DVL3, Q92997): below the threshold; pKd (FRMPD3, Q5JV73): below the threshold; pKd (Inadl_5, Q8NI35): below the threshold; pKd (NOS1, P29475): 3.92; pKd (DFNB31_2, Q9P202): below the threshold; pKd (HTRA3, P83110): below the threshold; pKd (PTPN3, P26045): 4.64; pKd (FRMPD1, Q5SYB0): below the threshold; pKd (SCRIB_3, Q14160): 3.87
B3 | 3.68 | below the threshold | below the threshold | below the threshold | 4.16 | 4.3 | 3.62 | 4.41 | below the threshold | below the threshold | 5.12 | 3.52 | below the threshold | below the threshold | 4.47 | below the threshold | 3.81 | below the threshold | below the threshold | 4.16 | pKd (DVL3, Q92997): below the threshold; pKd (FRMPD3, Q5JV73): below the threshold; pKd (Inadl_5, Q8NI35): below the threshold; pKd (NOS1, P29475): 3.91; pKd (DFNB31_2, Q9P202): below the threshold; pKd (HTRA3, P83110): below the threshold; pKd (PTPN3, P26045): below the threshold; pKd (FRMPD1, Q5SYB0): below the threshold; pKd (SCRIB_3, Q14160): 3.51
B4 | 3.76 | below the threshold | below the threshold | below the threshold | 3.62 | 3.97 | below the threshold | 3.92 | below the threshold | below the threshold | 5.43 | below the threshold | below the threshold | below the threshold | 4.84 | below the threshold | 3.63 | below the threshold | below the threshold | 3.83 | pKd (DVL3, Q92997): below the threshold; pKd (FRMPD3, Q5JV73): below the threshold; pKd (Inadl_5, Q8NI35): below the threshold; pKd (NOS1, P29475): below the threshold; pKd (DFNB31_2, Q9P202): below the threshold; pKd (HTRA3, P83110): below the threshold; pKd (PTPN3, P26045): 3.92; pKd (FRMPD1, Q5SYB0): below the threshold; pKd (SCRIB_3, Q14160): 3.67
B5 | 4.55 | below the threshold | below the threshold | below the threshold | below the threshold | 4.7 | below the threshold | below the threshold | below the threshold | below the threshold | 6.11 | 3.88 | below the threshold | below the threshold | 5.2 | below the threshold | 4.32 | below the threshold | below the threshold | 3.8 | pKd (DVL3, Q92997): below the threshold; pKd (FRMPD3, Q5JV73): below the threshold; pKd (Inadl_5, Q8NI35): 3.67; pKd (NOS1, P29475): 4.03; pKd (DFNB31_2, Q9P202): below the threshold; pKd (HTRA3, P83110): below the threshold; pKd (PTPN3, P26045): 4.79; pKd (FRMPD1, Q5SYB0): below the threshold; pKd (SCRIB_3, Q14160): 4.51
